The assay has as its target 重组PSMA蛋白片段 (human PSMA residues 307-750 with β2M and His tag, expressed in E. coli) (human, UniProt Q04609 307-750). The assay can be described thus: indirect ELISA, PSMA protein coated at 100 μg/ml, antibody titrated from 2000 to 0.625 ng/mL; affinity constant from the antibody concentration at half of the plateau OD. On the technique in general: ELISA stands for enzyme-linked immunosorbent assay.

Sequence of 重组PSMA蛋白片段 (human PSMA residues 307-750 with β2M and His tag, expressed in E. coli) (Q04609 307-750): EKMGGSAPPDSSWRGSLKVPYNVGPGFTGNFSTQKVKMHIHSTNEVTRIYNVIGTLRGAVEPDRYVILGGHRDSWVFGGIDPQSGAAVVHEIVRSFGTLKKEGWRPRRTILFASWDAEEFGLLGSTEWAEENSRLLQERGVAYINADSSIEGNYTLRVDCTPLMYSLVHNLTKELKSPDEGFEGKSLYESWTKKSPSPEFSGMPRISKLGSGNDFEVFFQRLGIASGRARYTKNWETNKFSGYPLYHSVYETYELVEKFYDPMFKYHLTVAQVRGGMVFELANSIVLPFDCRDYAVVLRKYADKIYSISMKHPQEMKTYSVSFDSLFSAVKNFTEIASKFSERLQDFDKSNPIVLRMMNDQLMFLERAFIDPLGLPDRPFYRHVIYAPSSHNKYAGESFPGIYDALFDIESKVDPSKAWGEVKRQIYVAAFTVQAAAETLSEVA

B1: 抗PSMA蛋白单克隆抗体(11D1E5E10) (antibody, V domains shown)
VH: QVQLQQSGPELARPGASVKMSCKASGYTFTSYTIHWVKQRPGQGLEWIGYISPSSGYTNYNQNFKDQATLTADISSSTAYMQLSSLTSEDSAVYYCARSGYRYDWYFDVWGAGTTVTVSS
VL: DIQMTQSPSSLSASLGGKVTITCKASQDINKYIAWYQHKPGKGPRLLIHYTSTLQPGIPSRFSGSGSGRDYSFSISNLEPEDIATYYCLQYDNLWTFGGGTKLEIK
notes: also called CGMCC NO.19683; PSMA单克隆抗体
The molecule B1 returned a Ka of 4.96e+09 M⁻¹.

These data come from patent CN112480260A (FUZHOU MAIXIN BIOTECHNOLOGY DEV CO LTD, dated 2021).
